Data on 10 molecules can be found in publication PMC13254535, “The RecBCD complex interacts directly with the DNA sliding clamp in Escherichia coli” (Nucleic Acids Research, 2026).

One test has as its target β-clamp (Escherichia coli, UniProt P0A988). In words: Saturation transfer difference (STD)-NMR of peptides with β-clamp. The class given is binding. Details: made in house. The conditions noted are these: 150 µM peptide, 1.5 µM β-clamp; 25°C; 20 mM sodium phosphate, 100 mM NaCl, 5 mM DTT, 0.3% DMSO, 5% D2O, pH 7.4; 600 MHz.
Test [1] deals with T1, Escherichia coli β-clamp (DnaN), recombinantly expressed and purified (Escherichia coli, UniProt P0A988 1-366).
T1 construct: β-clamp (dnaN), E. coli; homodimer; Unlabeled in STD-NMR and ITC; 2H,13C,15N-labeled in the TROSY-HSQC experiments; also called DNA sliding clamp; source: recombinantly expressed and purified as previously described [54]
T1 sequence (P0A988 whole entry): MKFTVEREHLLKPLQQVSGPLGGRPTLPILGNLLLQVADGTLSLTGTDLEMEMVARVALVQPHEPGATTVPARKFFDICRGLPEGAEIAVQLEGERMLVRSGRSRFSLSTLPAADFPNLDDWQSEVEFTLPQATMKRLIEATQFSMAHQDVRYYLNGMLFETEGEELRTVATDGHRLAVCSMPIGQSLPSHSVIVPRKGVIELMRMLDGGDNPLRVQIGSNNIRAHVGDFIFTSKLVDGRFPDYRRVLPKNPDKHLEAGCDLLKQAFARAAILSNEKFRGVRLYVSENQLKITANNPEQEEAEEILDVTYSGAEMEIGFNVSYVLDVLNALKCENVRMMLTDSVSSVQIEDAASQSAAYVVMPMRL
In words: STD-NMR; 150 µM peptide with 1.5 µM unlabeled β-clamp, 20 mM sodium phosphate, 100 mM NaCl, 5 mM DTT, 0.3% DMSO, pH 7.4, 25°C. The conditions noted are these: both partners purified.

The next test concerns BTH101 ΔrecB cells. In words: Western blot of RecB expression level. Also on record: species or system Escherichia coli. The note with it: pUT18C constructs in BTH101 ΔrecB; Ponceau S normalized; relative to BTH101 wild type.
Test [2] has as its system ΔrecA ΔrecB cells. In words: DNA degradation assay after UV ("reckless" DNA degradation). Format: cell-based, Escherichia coli. The note with it: expressed from pUT18C in ΔrecA ΔrecB; UV 50 J/m^2, 3 h; Hoechst 33258 microscopy. Here is the method:
(§1) IMR13 (ΔrecA) served as a positive control for RecB-mediated DNA degradation, while IMR19 (ΔrecA ΔrecB) was used as a negative control.
(§2) Overnight cultures were diluted to an OD600 of 0.01 into LB medium supplemented with appropriate antibiotics and incubated with shaking at 37°C until they reached an OD600 of 0.2. Each culture was split into two 1 ml aliquots. One aliquot was fixed immediately in ethanol (50% final concentration) to assess DNA content prior to UV exposure. The second aliquot was pelleted, resuspended in 1× PBS, and exposed to UV light at a dose of 50 J/m^2 (CL-1000 Ultraviolet crosslinker, UVP). […]
(§3) Imaging was performed on a Leica DM6000 B fluorescence microscope equipped with a 100× oil immersion objective (Leica HCX Plan Apochromat 100×, 1.40 NA, PH3 CS), a Leica EL6000 metal-halide illumination system, and a Hamamatsu C9100-14 EM-CCD camera. For each sample, six fields of view were acquired, each including both phase-contrast and fluorescence channels. Fluorescence imaging was conducted using a narrow band-pass filter set optimized for CFP (Excitation: 426–446 nm; Emission: 460–500 nm; exposure time: 30 ms). All imaging parameters—including exposure time, illumination intensity, and gain—were kept constant across all strains, treatments, and replicates to ensure quantitative comparability and minimize experimental bias. […]

Test [3] concerns ΔrecA ΔrecB cells. In words: Basal DNA content without UV. Format: cell-based, Escherichia coli. The note with it: expressed from pUT18C in ΔrecA ΔrecB; no UV; compared to wild-type RecB. Here is the method: as §1, §2, §3
The test system of the next test is RecA. The note with it: RecB mutation D1080A; ref [82]; cited from earlier work.
The test system of the next test is recB strains. The note with it: RecB mutation D1080A; ref [82]; cited from earlier work.
Test [4] has as its target T1, Escherichia coli β-clamp (DnaN), …. The test can be described thus: ITC; 278-294 µM β-clamp in the syringe titrated into 70.6 µM peptide in the cell; 20 mM sodium phosphate, 100 mM NaCl, 1 mM TCEP, 0.02% DMSO, pH 7.4, 25°C; one-site model; three replicates. The note with it: both partners purified. (In general: Isothermal titration calorimetry measures the heat released or taken up as one component is titrated into another.)

Chain of β-clamp (P0A988 whole entry): as above
Method for BTH101 ΔrecB cells: Samples, including purified RecB, β-clamp (purified as previously explained for co-immunoprecipitation), input (10 µg; 0.5%), and pull-down eluates, and samples from BTH101 cultures used in survival assays, were mixed with 1 mM dithiothreitol (DTT) and 1× NuPAGE LDS sample buffer, then heated to 75°C for 10 min. […] SeeBlue Plus2 Pre-stained Protein Standard (Invitrogen) was used as a molecular weight marker.
Proteins were transferred onto 0.2-µm nitrocellulose membranes using the Trans-Blot Turbo Transfer System (Bio-Rad), and membranes were blocked in 5% (w/v) skim milk (Merck) in PBS-T (PBS with 0.1% Tween-20) for 45–60 min at room temperature. […] Following protein transfer, these membranes were also incubated in 0.1% (w/v) Ponceau S solution for 5 min to verify transfer efficiency and account for total protein loading. The stain was visualized, imaged for densitometric normalization, and subsequently removed by washing with deionized water prior to blocking. […]
Relative RecB levels were quantified from the western blot images using Fiji (ImageJ) [58]. […] The lane profiles were plotted, and the measured signal from each lane was first normalized to the relevant Ponceau stain signal from the same lane and then to the wild-type strain.

“EQVELEFD [DNA polymerase III C-terminal CBM peptide, positive control, reference compound]”: the STD-NMR binding result at β-clamp is on record as “clear binding”.

For “GKNQALRAV [phenylalanine-to-alanine variant of the RecB helicase motif peptide]”, the STD-NMR binding entry at β-clamp is “did not exhibit detectable STD signals under the conditions tested”.

As for “GKNQALRFV [RecB helicase motif peptide (residues 485–489) with one C-terminal and three N-terminal flanking residues]”, the STD-NMR binding result at β-clamp is listed as “did not exhibit detectable STD signals under the conditions tested”.

As to “GQADMFG [DNA polymerase III internal CBM peptide, positive control, reference compound]”, the STD-NMR binding result on β-clamp is on record as “clear binding”.

Take “KQVEMEAY [QVEMEF variant in which the terminal phenylalanine was replaced with alanine]”: on β-clamp, the STD-NMR binding entry is “no detectable binding”.

B1: Pol III internal peptide (GQADMFG) (peptide)
peptide: Ac-GQADMFG-NH2
notes: also called QADMF peptide; source: synthetic peptide; bought: TAG Copenhagen
B1: in test [1], the binding result is given as “binds”.

B2: RecBF489A: RecB with an F489A substitution in the QALRF motif (protein, UniProt P08394 2-1180, looked up, variant F489A)
RecBCD enzyme subunit RecB: SDVAETLDPLRLPLQGERLIEASAGTGKTFTIAALYLRLLLGLGGSAAFPRPLTVEELLVVTFTEAATAELRGRIRSNIHELRIACLRETTDNPLYERLLEEIDDKAQAAQWLLLAERQMDEAAVFTIHGFCQRMLNLNAFESGMLFEQQLIEDESLLRYQACADFWRRHCYPLPREIAQVVFETWKGPQALLRDINRYLQGEAPVIKAPPPDDETLASRHAQIVARIDTVKQQWRDAVGELDALIESSGIDRRKFNRSNQAKWIDKISAWAEEETNSYQLPESLEKFSQRFLEDRTKAGGETPRHPLFEAIDQLLAEPLSIRDLVITRALAEIRETVAREKRRRGELGFDDMLSRLDSALRSESGEVLAAAIRTRFPVAMIDEFQDTDPQQYRIFRRIWHHQPETALLLIGDPKQAIYAFRGADIFTYMKARSEVHAHYTLDTNWRSAPGMVNSVNKLFSQTDDAFMFREIPFIPVKSAGKNQALRAVFKGETQPAMKMWLMEGESCGVGDYQSTMAQVCAAQIRDWLQAGQRGEALLMNGDDARPVRASDISVLVRSRQEAAQVRDALTLLEIPSVYLSNRDSVFETLEAQEMLWLLQAVMTPERENTLRSALATSMMGLNALDIETLNNDEHAWDVVVEEFDGYRQIWRKRGVMPMLRALMSARNIAENLLATAGGERRLTDILHISELLQEAGTQLESEHALVRWLSQHILEPDSNASSQQMRLESDKHLVQIVTIHKSKGLEYPLVWLPFITNFRVQEQAFYHDRHSFEAVLDLNAAPESVDLAEAERLAEDLRLLYVALTRSVWHCSLGVAPLVRRRGDKKGDTDVHQSALGRLLQKGEPQDAAGLRTCIEALCDDDIAWQTAQTGDNQPWQVNDVSTAELNAKTLQRLPGDNWRVTSYSGLQQRGHGIAQDLMPRLDVDAAGVASVVEEPTLTPHQFPRGASPGTFLHSLFEDLDFTQPVDPNWVREKLELGGFESQWEPVLTEWITAVLQAPLNETGVSLSQLSARNKQVEMEFYLPISEPLIASQLDTLIRQFDPLSAGCPPLEFMQVRGMLKGFIDLVFRHEGRYYLLDYKSNWLGEDSSAYTQQAMAAAMQAHRYDLQYQLYTLALHRYLRHRIADYDYEHHFGGVIYLFLRGVDKEHPQQGIYTTRPNAGLIALMDEMFAGMTLEEA
Consider B2, for which, in the test on BTH101 ΔrecB cells, the “RecB expression level relative to endogenous RecB” value is recorded as around 2 times. Also, in the test on ΔrecA ΔrecB cells [2], the “reckless DNA degradation after UV” value is “did not”. For the same molecule, in the test on ΔrecA ΔrecB cells [3], the “basal DNA content” value is reported as “No significant difference in DNA content”.

B3: D1080A: RecB mutation that disrupts the interaction between RecB and RecA (protein, UniProt P08394 2-1180, looked up, variant D1080A)
RecBCD enzyme subunit RecB: SDVAETLDPLRLPLQGERLIEASAGTGKTFTIAALYLRLLLGLGGSAAFPRPLTVEELLVVTFTEAATAELRGRIRSNIHELRIACLRETTDNPLYERLLEEIDDKAQAAQWLLLAERQMDEAAVFTIHGFCQRMLNLNAFESGMLFEQQLIEDESLLRYQACADFWRRHCYPLPREIAQVVFETWKGPQALLRDINRYLQGEAPVIKAPPPDDETLASRHAQIVARIDTVKQQWRDAVGELDALIESSGIDRRKFNRSNQAKWIDKISAWAEEETNSYQLPESLEKFSQRFLEDRTKAGGETPRHPLFEAIDQLLAEPLSIRDLVITRALAEIRETVAREKRRRGELGFDDMLSRLDSALRSESGEVLAAAIRTRFPVAMIDEFQDTDPQQYRIFRRIWHHQPETALLLIGDPKQAIYAFRGADIFTYMKARSEVHAHYTLDTNWRSAPGMVNSVNKLFSQTDDAFMFREIPFIPVKSAGKNQALRFVFKGETQPAMKMWLMEGESCGVGDYQSTMAQVCAAQIRDWLQAGQRGEALLMNGDDARPVRASDISVLVRSRQEAAQVRDALTLLEIPSVYLSNRDSVFETLEAQEMLWLLQAVMTPERENTLRSALATSMMGLNALDIETLNNDEHAWDVVVEEFDGYRQIWRKRGVMPMLRALMSARNIAENLLATAGGERRLTDILHISELLQEAGTQLESEHALVRWLSQHILEPDSNASSQQMRLESDKHLVQIVTIHKSKGLEYPLVWLPFITNFRVQEQAFYHDRHSFEAVLDLNAAPESVDLAEAERLAEDLRLLYVALTRSVWHCSLGVAPLVRRRGDKKGDTDVHQSALGRLLQKGEPQDAAGLRTCIEALCDDDIAWQTAQTGDNQPWQVNDVSTAELNAKTLQRLPGDNWRVTSYSGLQQRGHGIAQDLMPRLDVDAAGVASVVEEPTLTPHQFPRGASPGTFLHSLFEDLDFTQPVDPNWVREKLELGGFESQWEPVLTEWITAVLQAPLNETGVSLSQLSARNKQVEMEFYLPISEPLIASQLDTLIRQFDPLSAGCPPLEFMQVRGMLKGFIDLVFRHEGRYYLLAYKSNWLGEDSSAYTQQAMAAAMQAHRYDLQYQLYTLALHRYLRHRIADYDYEHHFGGVIYLFLRGVDKEHPQQGIYTTRPNAGLIALMDEMFAGMTLEEA
B3: the “interaction between RecB and RecA” value in the test on RecA is “disrupts the interaction between RecB and RecA”. Moreover, the “survival rates after UV exposure” value in the test on recB strains is “comparable to those observed in strains with a complete recB deletion”.

B4: RecB nuclease motif peptide (KQVEMEFY) (peptide)
peptide: Ac-KQVEMEFY-NH2
notes: also called QVEMEF peptide; RecB-derived QVEMEF peptide; source: synthetic peptide; bought: TAG Copenhagen
For the molecule B4, the dissociation constant Kd (in general, the constant that tells how readily two partners part at equilibrium) in test [4] came to 2000 nM.

B5: Pol III C-terminal peptide (EQVELEFD) (peptide)
peptide: EQVELEFD
notes: free termini; also called QVELEF peptide; source: synthetic peptide; bought: TAG Copenhagen
Take B5: in test [1], the binding result is reported as “binds”.
